Values of other authors, collected in article PMC13142048.

How the values were obtained:
[1] = target: CD226 (DNAM-1) (Homo sapiens) (UniProt Q15762)
[2] = target: CD96 (TACTILE) (Homo sapiens) (UniProt P40200)
TIGIT (Homo sapiens) = TIGIT (Homo sapiens) (UniProt Q495A1)
UniProt Q495A1, sequence (Q495A1 22-141): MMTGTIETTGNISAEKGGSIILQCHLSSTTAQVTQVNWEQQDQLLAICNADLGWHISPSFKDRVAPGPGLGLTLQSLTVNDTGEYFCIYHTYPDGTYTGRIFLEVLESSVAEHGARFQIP

UniProt P40200, sequence (P40200 22-519): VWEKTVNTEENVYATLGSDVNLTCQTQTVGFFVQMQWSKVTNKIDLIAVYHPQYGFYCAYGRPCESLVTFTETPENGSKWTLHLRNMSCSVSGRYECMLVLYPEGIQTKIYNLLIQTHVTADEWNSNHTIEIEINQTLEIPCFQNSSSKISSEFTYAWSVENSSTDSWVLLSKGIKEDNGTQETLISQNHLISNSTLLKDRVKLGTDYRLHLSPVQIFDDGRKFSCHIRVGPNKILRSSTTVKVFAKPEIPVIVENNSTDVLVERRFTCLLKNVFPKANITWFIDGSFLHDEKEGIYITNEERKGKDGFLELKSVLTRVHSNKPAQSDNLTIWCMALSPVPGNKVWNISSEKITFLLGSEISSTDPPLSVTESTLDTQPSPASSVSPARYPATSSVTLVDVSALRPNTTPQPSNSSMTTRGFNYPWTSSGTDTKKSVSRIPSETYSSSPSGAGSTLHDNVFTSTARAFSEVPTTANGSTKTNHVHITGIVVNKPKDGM
UniProt Q15762, sequence (Q15762 19-254): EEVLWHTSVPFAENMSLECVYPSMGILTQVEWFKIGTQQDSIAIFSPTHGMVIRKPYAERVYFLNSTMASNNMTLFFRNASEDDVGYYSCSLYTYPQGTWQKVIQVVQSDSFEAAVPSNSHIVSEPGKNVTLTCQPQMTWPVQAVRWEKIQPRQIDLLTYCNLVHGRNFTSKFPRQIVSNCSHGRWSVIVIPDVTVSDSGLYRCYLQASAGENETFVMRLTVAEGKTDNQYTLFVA

Kd [1]: 119 nM | Kd [2]: 37.6 nM | Kd (TIGIT (Homo sapiens)): 3.15 nM
Substance: CD155 (from UniProt P15151)
